Here are results for 1 molecule from patent US20210063414A1, “METHODS FOR PREVENTING AND/OR TREATING BONE LOSS CONDITIONS BY MODULATING IRISIN” (Dana-Farber Cancer Institute, Inc., priority 2018, published 2021).

Assay in all cases: Crosslinking/co-immunoprecipitation/mass spectrometry (TMT quantitative proteomics) to identify irisin receptors
Type in all cases: binding

For assay [1], the target named is T1, MLO-Y4 cell surface proteins (Mus musculus, UniProt P41216).
T1 construct: endogenous in cells; host or cells: MLO-Y4
T1 sequence (P41216 1-699): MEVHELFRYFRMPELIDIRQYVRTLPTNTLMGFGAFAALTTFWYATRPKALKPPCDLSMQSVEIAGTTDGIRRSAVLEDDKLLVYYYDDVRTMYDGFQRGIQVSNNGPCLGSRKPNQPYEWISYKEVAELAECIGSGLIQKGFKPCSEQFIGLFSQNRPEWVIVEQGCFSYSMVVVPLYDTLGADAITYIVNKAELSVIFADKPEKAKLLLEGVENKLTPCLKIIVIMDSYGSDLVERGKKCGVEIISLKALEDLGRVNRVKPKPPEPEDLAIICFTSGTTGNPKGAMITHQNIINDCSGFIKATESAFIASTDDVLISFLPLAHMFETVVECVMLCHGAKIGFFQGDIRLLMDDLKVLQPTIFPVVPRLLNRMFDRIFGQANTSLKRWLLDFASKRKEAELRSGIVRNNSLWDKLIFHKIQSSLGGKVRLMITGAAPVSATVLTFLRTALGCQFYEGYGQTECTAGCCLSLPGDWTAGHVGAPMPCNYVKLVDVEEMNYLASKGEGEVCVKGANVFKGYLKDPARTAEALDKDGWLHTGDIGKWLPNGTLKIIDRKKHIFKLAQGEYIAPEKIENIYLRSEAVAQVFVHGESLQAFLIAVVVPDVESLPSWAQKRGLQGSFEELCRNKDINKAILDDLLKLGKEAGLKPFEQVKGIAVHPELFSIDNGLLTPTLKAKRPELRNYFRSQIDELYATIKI
To be noted: co-precipitated protein Acsl1 (ACSL1_MOUSE). The gist of the method: (§1)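 Mouse MLO-Y4 cells were switched to serum-free FreeStyle medium for 4 h, chilled, then exposed to 10 nM His-tagged irisin (or adipsin as control) for 20 min. Cells were crosslinked with 1.5 mM DTSSP (30 min, ice), and bound proteins were pulled down on Ni-NTA and eluted with 250 mM imidazole. Eluates were separated by SDS-PAGE, trypsin-digested in gel, TMT 6-plex labelled and quantified by MS3-based LC-MS/MS on an Orbitrap Fusion Lumos.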

For assay [2], the target named is T2, MLO-Y4 cell surface proteins (Mus musculus, UniProt Q3U1J4).
T2 construct: endogenous in cells; host or cells: MLO-Y4
As to conditions: co-precipitated protein Ddb1 (DDB1_MOUSE). The method in brief: as §1

In assay [3] the target is T3, MLO-Y4 cell surface proteins (Mus musculus, UniProt Q8R1J9).
T3 construct: endogenous in cells; host or cells: MLO-Y4
To be noted: co-precipitated protein Tor2a (TOR2A_MOUSE). The gist of the method:
as §1

For assay [4], the target named is T4, MLO-Y4 cell surface proteins (Mus musculus, UniProt Q9CY64).
T4 construct: endogenous in cells; host or cells: MLO-Y4
T4 sequence (Q9CY64 3-295): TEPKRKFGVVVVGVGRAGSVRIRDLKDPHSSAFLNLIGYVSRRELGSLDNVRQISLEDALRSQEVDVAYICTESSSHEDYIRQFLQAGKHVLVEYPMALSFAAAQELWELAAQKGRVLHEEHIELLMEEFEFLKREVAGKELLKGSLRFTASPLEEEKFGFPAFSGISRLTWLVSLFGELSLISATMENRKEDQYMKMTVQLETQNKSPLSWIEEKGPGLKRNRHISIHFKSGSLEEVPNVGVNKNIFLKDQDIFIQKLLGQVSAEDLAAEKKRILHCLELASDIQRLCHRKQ
As to conditions: co-precipitated protein Blvra (BIEA_MOUSE). The gist of the method:
as §1

T2 sequence (Q3U1J4 whole entry): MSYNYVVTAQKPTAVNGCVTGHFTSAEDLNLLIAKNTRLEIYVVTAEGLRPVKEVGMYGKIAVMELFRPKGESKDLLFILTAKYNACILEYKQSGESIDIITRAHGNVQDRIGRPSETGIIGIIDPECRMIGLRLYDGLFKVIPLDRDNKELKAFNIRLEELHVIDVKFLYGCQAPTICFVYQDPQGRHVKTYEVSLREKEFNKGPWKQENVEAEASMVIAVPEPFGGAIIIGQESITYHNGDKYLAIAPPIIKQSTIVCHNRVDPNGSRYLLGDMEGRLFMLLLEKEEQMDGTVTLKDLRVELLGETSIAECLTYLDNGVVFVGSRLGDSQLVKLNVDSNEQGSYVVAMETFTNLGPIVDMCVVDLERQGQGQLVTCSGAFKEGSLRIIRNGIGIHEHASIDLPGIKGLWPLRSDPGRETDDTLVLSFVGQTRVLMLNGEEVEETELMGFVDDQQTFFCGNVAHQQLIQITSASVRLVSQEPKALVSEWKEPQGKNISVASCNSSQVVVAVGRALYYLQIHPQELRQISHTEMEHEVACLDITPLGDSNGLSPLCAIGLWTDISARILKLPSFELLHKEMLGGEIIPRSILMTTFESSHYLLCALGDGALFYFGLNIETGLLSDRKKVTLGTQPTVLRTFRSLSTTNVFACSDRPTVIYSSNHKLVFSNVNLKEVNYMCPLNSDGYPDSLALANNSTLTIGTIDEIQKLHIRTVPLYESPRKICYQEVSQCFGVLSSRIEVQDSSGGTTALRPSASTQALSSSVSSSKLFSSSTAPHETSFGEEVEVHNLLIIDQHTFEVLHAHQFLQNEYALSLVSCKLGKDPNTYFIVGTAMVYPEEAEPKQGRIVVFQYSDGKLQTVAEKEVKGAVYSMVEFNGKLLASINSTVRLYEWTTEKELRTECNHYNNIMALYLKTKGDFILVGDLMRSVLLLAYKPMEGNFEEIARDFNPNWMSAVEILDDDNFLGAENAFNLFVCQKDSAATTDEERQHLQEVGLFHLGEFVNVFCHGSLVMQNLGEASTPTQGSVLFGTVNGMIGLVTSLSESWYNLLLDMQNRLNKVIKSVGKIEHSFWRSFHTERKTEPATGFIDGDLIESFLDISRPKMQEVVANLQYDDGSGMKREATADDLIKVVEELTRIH
T3 sequence (Q8R1J9 27-321): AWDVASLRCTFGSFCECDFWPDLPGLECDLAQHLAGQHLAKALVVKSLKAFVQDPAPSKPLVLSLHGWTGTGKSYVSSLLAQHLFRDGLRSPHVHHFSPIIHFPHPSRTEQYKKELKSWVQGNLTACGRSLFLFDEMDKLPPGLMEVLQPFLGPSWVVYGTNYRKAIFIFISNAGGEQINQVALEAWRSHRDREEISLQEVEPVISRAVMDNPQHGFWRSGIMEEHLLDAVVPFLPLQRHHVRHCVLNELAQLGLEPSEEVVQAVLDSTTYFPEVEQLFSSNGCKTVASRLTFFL

B1: irisin: secreted cleaved form of FNDC5; recombinant human/mouse irisin with C-terminal his tag produced in HEK293 cells (protein)
chain: DSPSAPVNVTVRHLKANSAVVSWDVLEDEVVIGFAISQQKKDVRMLRFIQEVNTTTRSCALWDLEEDTEYIVHVQAISIQGQSPASEPVLFKTPREAEKMASKNKDEVTMKE
modifications: left off: small tags and cut ends
notes: secreted cleaved form of FNDC5; recombinant human/mouse irisin with C-terminal his tag produced in HEK293 cells
Turning to B1, the TMT signal-to-noise ratio in assay [1] stood at 192.15; in assay [2], 149.943; in assay [3] it was 338.383; in assay [4], 86.0306. Also, the “irisin/adipsin TMT signal-to-noise ratio” value was 0.532 in assay [1], 0.352 in assay [2], 0.486 in assay [3] and 0.284 in assay [4].
